PMC3558696

Molecular target: KERP1 (lysine and glutamic acid rich protein 1), recombinant full-length protein (Entamoeba histolytica (strain HM1:IMSS))
Assay: AUC

stoichiometry N: 3
Substance: KERP1 (lysine and glutamic acid rich protein 1), recombinant full-length protein (natural protein)
